Some targets named below: Lck (Homo sapiens, UniProt P06239); EPH-A2 (Homo sapiens, UniProt P29317); JNK2 (Homo sapiens, UniProt P45984); MLK3 (Homo sapiens, UniProt Q16584); PKBa (Homo sapiens, UniProt P31749); TIE2 (Homo sapiens, UniProt Q02763); ERK1 (Homo sapiens, UniProt P27361); CDK2-Cyclin A (Homo sapiens, UniProt P24941); CLK2 (Homo sapiens, UniProt P49760).
What all share (assay): Kinase panel residual activity
What all share (type): biochemical
Details in all cases: compound at 1 micromolar

The target in a further data set is T1, CHK1 (Homo sapiens, UniProt O14757).
T1 sequence (O14757 1-476): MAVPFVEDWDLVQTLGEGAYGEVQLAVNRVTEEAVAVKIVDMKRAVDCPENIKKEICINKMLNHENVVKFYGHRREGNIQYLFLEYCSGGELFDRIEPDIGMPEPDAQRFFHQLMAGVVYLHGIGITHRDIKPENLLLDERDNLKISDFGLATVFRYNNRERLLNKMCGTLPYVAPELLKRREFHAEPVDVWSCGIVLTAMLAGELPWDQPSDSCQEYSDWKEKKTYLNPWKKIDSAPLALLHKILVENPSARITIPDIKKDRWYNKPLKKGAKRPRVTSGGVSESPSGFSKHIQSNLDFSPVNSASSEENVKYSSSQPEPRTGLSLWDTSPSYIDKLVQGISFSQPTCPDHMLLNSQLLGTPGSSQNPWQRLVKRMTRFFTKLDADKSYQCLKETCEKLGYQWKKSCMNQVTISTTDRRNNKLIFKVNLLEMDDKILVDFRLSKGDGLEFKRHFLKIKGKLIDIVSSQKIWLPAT

For the next data set, the target named is T2, TBK1 (Homo sapiens, UniProt Q9UHD2).
T2 sequence (Q9UHD2 1-729): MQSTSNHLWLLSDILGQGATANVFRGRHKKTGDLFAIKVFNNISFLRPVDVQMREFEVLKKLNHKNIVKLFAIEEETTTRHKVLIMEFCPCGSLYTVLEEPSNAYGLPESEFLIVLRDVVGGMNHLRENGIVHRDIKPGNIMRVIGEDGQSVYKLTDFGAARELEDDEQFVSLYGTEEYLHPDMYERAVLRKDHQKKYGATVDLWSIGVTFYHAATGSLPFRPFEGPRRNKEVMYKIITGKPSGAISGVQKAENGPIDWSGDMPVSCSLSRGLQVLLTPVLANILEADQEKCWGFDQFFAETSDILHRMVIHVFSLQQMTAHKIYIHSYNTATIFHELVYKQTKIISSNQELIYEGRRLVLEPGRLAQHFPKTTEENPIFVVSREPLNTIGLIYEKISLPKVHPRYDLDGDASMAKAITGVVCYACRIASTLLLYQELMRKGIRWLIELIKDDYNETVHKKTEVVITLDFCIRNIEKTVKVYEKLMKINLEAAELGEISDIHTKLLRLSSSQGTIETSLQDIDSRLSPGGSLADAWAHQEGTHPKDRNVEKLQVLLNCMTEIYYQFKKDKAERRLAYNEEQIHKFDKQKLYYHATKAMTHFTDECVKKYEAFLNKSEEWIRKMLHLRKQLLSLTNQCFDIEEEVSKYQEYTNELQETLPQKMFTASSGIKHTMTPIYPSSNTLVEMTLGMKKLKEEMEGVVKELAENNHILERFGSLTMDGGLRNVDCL

The target of a further data set is T3, TAK1 (Homo sapiens, UniProt O43318).
T3 sequence (O43318 1-303 limits assumed): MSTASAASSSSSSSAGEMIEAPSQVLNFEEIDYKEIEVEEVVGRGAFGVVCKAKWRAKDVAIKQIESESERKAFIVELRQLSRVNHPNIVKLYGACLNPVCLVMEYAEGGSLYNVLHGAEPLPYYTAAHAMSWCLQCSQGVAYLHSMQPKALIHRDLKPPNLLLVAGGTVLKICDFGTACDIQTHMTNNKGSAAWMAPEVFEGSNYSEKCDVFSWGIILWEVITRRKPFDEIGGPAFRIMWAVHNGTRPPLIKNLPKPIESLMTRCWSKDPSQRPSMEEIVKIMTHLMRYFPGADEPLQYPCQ

The structures appear in SMILES notation. Where a SMILES comes first, the peptide text is derived from it. [ ]: non-standard residue; d: D form. The star is where a group is joined. X1 = O=C(CCCCCCCn1cnc2c(Br)c(Br)c(Br)c(Br)c21)*

Chain of PKBa (P31749 whole entry): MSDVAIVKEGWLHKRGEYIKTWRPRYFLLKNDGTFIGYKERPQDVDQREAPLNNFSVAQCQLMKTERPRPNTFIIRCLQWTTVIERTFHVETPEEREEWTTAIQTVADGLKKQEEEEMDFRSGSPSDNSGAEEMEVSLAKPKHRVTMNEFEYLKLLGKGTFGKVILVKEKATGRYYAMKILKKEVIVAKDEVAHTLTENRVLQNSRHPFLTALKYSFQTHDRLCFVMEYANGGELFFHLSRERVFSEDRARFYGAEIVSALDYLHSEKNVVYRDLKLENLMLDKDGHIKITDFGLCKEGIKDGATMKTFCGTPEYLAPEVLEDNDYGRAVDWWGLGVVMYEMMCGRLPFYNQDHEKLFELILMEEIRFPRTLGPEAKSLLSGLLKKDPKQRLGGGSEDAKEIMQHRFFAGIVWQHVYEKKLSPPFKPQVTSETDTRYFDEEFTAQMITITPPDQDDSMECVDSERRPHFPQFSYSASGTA
Chain of ERK1 (P27361 whole entry, species assumed): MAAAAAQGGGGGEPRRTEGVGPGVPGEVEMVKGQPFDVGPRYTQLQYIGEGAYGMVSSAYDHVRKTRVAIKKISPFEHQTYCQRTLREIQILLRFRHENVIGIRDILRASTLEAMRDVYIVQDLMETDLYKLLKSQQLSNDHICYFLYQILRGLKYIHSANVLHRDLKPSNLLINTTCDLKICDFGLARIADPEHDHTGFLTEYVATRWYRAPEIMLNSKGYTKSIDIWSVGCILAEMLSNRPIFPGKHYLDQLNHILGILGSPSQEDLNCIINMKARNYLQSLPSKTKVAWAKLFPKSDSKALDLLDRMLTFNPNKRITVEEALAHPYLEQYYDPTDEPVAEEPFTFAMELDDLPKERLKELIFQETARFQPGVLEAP
Chain of EPH-A2 (P29317 24-976, species assumed): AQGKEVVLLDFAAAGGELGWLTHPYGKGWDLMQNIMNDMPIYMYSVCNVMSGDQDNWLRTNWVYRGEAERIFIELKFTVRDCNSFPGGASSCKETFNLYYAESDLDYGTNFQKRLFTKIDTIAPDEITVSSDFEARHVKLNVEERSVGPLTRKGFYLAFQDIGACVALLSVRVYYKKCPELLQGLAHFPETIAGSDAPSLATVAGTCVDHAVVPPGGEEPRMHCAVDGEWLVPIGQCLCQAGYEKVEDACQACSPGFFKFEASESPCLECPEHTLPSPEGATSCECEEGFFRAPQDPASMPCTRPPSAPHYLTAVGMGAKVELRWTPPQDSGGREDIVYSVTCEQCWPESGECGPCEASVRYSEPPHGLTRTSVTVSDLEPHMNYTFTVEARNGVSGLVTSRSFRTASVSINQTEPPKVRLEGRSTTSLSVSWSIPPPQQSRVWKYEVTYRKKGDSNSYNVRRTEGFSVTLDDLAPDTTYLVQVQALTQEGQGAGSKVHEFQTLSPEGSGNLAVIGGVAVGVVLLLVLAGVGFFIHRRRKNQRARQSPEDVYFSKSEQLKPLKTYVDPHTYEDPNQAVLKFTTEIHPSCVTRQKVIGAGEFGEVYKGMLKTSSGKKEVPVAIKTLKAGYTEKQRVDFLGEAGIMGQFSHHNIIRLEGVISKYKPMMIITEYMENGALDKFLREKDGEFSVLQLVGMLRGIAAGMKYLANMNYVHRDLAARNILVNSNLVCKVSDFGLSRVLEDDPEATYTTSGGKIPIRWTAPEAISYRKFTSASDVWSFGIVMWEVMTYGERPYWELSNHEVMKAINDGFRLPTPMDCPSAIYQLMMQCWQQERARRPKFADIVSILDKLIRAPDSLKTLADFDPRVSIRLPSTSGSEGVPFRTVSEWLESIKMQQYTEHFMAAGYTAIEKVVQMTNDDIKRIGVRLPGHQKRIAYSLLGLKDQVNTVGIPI
Chain of Lck (P06239 whole entry, species assumed): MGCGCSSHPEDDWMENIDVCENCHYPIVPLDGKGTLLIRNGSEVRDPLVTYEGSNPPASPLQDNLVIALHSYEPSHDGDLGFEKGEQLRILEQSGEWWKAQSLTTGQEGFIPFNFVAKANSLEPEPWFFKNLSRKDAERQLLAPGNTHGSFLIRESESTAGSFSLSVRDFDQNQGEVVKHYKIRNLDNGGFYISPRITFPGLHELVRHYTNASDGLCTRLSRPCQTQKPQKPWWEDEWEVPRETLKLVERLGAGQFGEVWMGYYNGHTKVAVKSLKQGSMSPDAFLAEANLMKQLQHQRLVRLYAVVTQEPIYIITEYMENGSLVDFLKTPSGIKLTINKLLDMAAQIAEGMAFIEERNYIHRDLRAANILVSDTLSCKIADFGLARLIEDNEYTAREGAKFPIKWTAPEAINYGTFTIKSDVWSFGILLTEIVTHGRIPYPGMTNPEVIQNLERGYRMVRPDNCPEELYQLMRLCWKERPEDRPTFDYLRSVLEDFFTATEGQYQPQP
Chain of JNK2 (P45984 whole entry, species assumed): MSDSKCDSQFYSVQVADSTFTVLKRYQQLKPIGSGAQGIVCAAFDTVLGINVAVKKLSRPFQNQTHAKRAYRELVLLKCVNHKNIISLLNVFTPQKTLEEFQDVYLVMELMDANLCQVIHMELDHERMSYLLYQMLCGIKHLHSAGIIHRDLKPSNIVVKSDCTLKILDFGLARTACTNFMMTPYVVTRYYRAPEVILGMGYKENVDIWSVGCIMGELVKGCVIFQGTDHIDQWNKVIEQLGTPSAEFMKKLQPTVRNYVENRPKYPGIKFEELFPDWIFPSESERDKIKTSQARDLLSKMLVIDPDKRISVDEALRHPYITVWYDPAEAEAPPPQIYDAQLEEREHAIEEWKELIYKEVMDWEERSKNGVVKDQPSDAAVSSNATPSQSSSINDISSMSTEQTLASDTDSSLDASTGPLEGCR
Chain of TIE2 (Q02763 23-1124, species assumed): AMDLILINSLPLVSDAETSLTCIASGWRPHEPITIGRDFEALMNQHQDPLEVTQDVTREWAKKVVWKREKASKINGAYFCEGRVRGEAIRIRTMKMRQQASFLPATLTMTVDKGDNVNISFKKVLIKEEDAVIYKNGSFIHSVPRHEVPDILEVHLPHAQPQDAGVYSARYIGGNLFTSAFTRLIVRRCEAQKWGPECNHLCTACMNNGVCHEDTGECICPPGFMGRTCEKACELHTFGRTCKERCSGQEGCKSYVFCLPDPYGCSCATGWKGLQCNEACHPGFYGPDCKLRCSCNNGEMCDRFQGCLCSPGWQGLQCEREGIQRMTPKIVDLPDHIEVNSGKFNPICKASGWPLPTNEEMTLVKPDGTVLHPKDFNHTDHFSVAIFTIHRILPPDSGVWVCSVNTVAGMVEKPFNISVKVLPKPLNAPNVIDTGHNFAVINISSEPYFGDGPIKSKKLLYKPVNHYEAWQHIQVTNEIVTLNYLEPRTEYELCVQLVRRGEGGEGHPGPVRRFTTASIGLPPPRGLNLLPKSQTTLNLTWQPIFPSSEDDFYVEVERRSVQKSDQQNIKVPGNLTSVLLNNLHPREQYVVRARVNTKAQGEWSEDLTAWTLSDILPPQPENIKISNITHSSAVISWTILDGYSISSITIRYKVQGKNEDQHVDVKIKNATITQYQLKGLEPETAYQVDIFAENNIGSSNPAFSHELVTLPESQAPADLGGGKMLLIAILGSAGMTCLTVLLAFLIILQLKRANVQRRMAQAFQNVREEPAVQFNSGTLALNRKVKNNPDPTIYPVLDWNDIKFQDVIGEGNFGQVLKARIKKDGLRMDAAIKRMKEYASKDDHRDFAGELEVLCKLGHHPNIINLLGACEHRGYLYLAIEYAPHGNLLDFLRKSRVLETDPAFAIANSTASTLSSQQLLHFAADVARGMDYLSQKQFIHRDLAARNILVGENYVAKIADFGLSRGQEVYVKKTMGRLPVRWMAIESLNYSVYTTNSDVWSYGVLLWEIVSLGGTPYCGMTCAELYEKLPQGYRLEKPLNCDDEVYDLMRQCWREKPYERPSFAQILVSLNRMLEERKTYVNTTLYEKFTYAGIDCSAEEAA
Chain of MLK3 (Q16584 whole entry, species assumed): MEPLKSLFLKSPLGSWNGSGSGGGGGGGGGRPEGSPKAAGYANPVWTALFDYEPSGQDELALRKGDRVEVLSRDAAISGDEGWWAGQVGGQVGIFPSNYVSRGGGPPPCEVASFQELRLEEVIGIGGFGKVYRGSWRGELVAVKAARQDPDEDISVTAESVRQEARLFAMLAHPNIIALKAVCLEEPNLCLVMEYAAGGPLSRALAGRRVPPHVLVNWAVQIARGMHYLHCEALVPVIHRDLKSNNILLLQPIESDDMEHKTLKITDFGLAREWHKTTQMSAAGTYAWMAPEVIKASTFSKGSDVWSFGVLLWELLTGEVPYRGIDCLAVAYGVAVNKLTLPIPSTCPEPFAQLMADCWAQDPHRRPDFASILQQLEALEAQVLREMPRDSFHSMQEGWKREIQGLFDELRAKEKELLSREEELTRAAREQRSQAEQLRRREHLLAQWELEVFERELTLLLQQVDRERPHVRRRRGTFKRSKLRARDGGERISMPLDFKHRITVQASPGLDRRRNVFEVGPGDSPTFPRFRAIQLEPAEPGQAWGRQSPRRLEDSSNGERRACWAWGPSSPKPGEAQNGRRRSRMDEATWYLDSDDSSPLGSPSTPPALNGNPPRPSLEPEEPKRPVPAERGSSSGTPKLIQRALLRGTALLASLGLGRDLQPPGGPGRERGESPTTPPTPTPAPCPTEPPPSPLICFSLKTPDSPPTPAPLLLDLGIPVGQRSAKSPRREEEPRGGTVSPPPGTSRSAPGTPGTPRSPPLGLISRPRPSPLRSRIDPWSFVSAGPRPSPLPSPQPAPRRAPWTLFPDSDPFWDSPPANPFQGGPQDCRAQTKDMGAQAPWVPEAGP

Regarding `NCCCC[C@H](NC(=O)[C@H](CC(=O)O)NC(=O)[C@H](CC(=O)O)NC(=O)[C@H](CC(=O)O)NC(=O)[C@H](CC(=O)O)NC(=O)[C@H](CC(=O)O)NC(=O)[C@@H](CC(=O)O)NC(=O)CCCCCCCn1cnc2c(Br)c(Br)c(Br)c(Br)c21)C(=O)O` [TBBI-OcA-(D-Asp)-(L-Asp)5-(L-Lys)-OH] (X1-[dD]DDDDDK-OH), the remaining activity at 1 µM with Lck is 62%; with EPH-A2 it was 80%; in the data set with JNK2 it was 105%; in the data set with MLK3, 89%; in the data set with CHK1, 134%; with TBK1 it was 93%. In addition, the remaining activity at 1 µM stood at 73% with PKBa; 105% in the data set with TIE2; 110% in the data set with ERK1; 64% with CDK2-Cyclin A; 62% in the data set with TAK1; 24% in the data set with CLK2.
